In patent publication US8796201B2 (The Board of Trustees of the Leland Stanford Junior …, priority 2002, dated 2014):

B1: FM PEP: recombinant prolyl endopeptidase from Flavobacterium meningosepticum (Genbank D10980) (protein)
chain: QNSNVLKYPETKKVSHTDTYFGTQVSDPYRWLEDDRAEDTKAWVQQEVKFTQDYLAQIPFRDQLKKQLMDIWNYEKISAPFKKGKYTYFSKNDGLQAQSVLYRKDAAGKTEVFLDPNKFSEKGTTSLASVSFNKKGTLVAYSISEGGSDWNKIIILDAETKKQLDETLLDVKFSGISWLGDEGFFYSSYDKPKEGSVLSGMTDKHKVYFHKLGTKQSQDELIIGGDKFPRRYIGAYVTDDQRYLVVSAANATNGNELYIKDLKNKTDFIPIITGFDSNVNVADTDGDTLYLFTDKDAPNKRLVKTTIQNPKAETWKDVIAETSEPLEINTGGGYFFATYMKDAIDQVKQYDKNGKLVRAIKLPGSGNASGFGGEKTEKDLYYSFTNYITPPTIFKYNVTTGNSEVYQKPKVKFNPENYVSEQVFYTSSDGTKIPMMISYKKGLKKDGKNPTILYSYGGFNISLQPAFSVVNAIWMENGGIYAVPNIRGGGEYGKKWHDAGTKMQKKNVFNDFIAAGEYLQKNGYTSKEYMALSGRSNGGLLVGATMTMRPDLAKVAFPGVGVLDMLRYNKFTAGAGWAYDYGTAEDSKEMFEYLKSYSPVHNVKAGTCYPSTMVITSDHDDRVVPAHSFKFGSELQAKQSCKNPILIRIETNAGHGAGRSTEQVVAENADLLSFALYEMGIKSLK
B2: MX PEP: novel recombinant prolyl endopeptidase from Myxococcus xanthus (Genbank AF127082, SEQ ID NO:47) (protein, listed as Myxococcus xanthus)
chain: MSYPATRAEQVVDTLHGVQVADPYRWLEDEKAPEVQTWMTAQNAHAREALAKFPGREALAARFKELFYTDSVSTPSRRNGRFFYVRTHKDKEKAILYWRQGESGQEKVLLDPNGWSKDGTVSLGTWAVSWDGKKVAFAQKPNAADEAVLHVIDVDSGEWSKVDVIEGGKYATPKWTPDSKGFYYEWLPTDPSIKVDERPGYTTIRYHTLGTEPSKDTVVHERTGDPTTFLQSDLSRDGKYLFVYILRGWSENDVYWKRPGEKDFRLLVKGVGAKYEVHAWKDRFYVLTDEGAPRQRVFEVDPAKPARASWKEIVPEDSSASLLSVSIVGGHLSLEYLKDATSEVRVATLKGKPVRTVQLPGVGAASNLMGLEDLDDAYYVFTSFTTPRQIYKTSVSTGKSELWAKVDVPMNPEQYQVEQVFYASKDGTKVPMFVVHRKDLKRDGNAPTLLYGYGGFNVNMEANFRSSILPWLDAGGVYAVANLRGGGEYGKAWHDAGRLDKKQNVFDDFHAAAEYLVQQKYTQPKRLAIYGGSNGGLLVGAAMTQRPELYGAVVCAVPLLDMVRYHLFGSGRTWIPEYGTAEKPEDFKTLHAYSPYHHVRPDVRYPALLMMAADHDDRVDPMHARKFVAAVQNSPGNPATALLRIEANAGHGGADQVAKAIESSVDLYSFLFQVLDVQGAQGGVAAQGR

Experiments:
[1] = Kinetic analysis with reference substrate Succinyl-Ala-Pro-pNA; assay type: biochemical; settings: Succinyl-Ala-Pro-p-nitroanilide hydrolysis
Experimental: Activity Assays. Post-proline cleavage activity was measured using Z-Gly-Pro-p-nitroanilide and Succinyl-Ala-Pro-p-nitroanilide (Bachem, CA). Z-Gly-Pro-pNA was dissolved in a PBS:water:dioxane (8:1.2:0.8) assay mixture. The concentration of Z-Gly-Pro-pNA was varied from 100-600 μM. Although the substrate Z-Gly-Pro-pNA was effective in detecting enzyme activity, its insolubility at higher concentrations precluded kinetic measurements under substrate-saturated conditions. In contrast, Succinyl-Ala-Pro-pNA, had the advantage of high water solubility at all pH values tested, and was therefore a preferred substrate for kinetic studies. […] Reaction mixtures ([…] consisted of 30 μl of 10× pH buffer, final concentration of 0.01 μM enzyme, and Suc-Ala-Pro-pNA to final concentrations between 100 μM to 4 mM.
Kinetic Analysis with Reference Substrates. The activity of each PEP was initially evaluated using the standard chromogenic substrate succinyl-Ala-Pro-pNA. Release of the p-nitroaniline was detected at 410 nm, and kinetic data was fitted to the Michaelis-Menten relationship. Succinyl-Ala-Pro-pNA was selected as a reference substrate instead of the more commonly used Z-Gly-Pro-pNA due to the low solubility of the latter substrate, which necessitated use of co-solvents. The calculated kcat and KM values of FM, MX and SC PEPs for succinyl-Ala-Pro-pNA are tabulated (Table 3). […] The higher specificity of MX can be attributed mainly to its higher affinity for the substrate, as reflected in the KM.

PQPQLPYPQPQLP = experiment: Competitive assay of PEP specificity for gliadin peptide versus Suc-Ala-Pro-pNA; assay type: biochemical, wheat; settings: PQPQLPYPQPQLP vs Suc-Ala-Pro-pNA
Experimental: Substrate Specificity. In addition to the reference substrates above, enzyme specificity was also evaluated using two immunogenic peptides derived from the sequence of γ-gliadin proteins in gluten. Both peptides were synthesized using solid-phase peptide synthesis. The peptide (SEQ ID NO:4) […] contains the immunodominant γII-epitope, and is resistant to proteolysis by pepsin or any pancreatic enzyme. PEP specificity toward this substrate was assessed in a competitive assay in which 100 μM (SEQ ID NO:4) […] and 100 μM Suc-Ala-Pro-pNA were mixed and reacted with 0.02 μM PEP at 25° C. The initial velocity of Suc-Ala-Pro-pNA cleavage was measured spectrophotometrically, whereas the initial velocity of (SEQ ID NO:4) […] hydrolysis was determined via HPLC. The apparent specificity, kcat/KM, for the hydrolysis of (SEQ ID NO:4) […] could be determined based on the known kcat/KM of the enzyme for Suc-Ala-Pro-pNA and the observed reaction rates of the two substrates. […]
The kcat/KM values of each PEP were determined in an assay mixture containing (SEQ ID NO:4) […] as well as Suc-Ala-Pro-pNA as a competing substrate. The rates of disappearance of both substrates were determined by independent detection methods. The initial rate of disappearance of (SEQ ID NO:4) […] was measured by HPLC, whereas the rate of consumption of Suc-Ala-Pro-pNA was measured spectrophotometrically. […]

[2] = system: LQLQPFPQPQLPYPQPQLPYPQPQLPYPQPQPF (33-mer); experiment: Hydrolysis of the 33-mer gliadin peptide by PEPs, HPLC; assay type: biochemical, wheat; settings: for rate of substrate (33-mer+32-mer) disappearance: 10 μM substrate; for initial hydrolytic products of the 33-mer: LC/MS/MS
Experimental: FIGS. 11A-11C. Hydrolysis of (SEQ ID NO:12) […] by FM PEP, MX PEP and SC PEP. (A) Time dependence of hydrolysis in the presence of 10 μM substrate and 0.1 μM enzyme. […] (B) Initial cleavage fragments observed due to hydrolysis by FM PEP (t=1 min) and MX PEP (t=5 min). (C) Summary of initial cleavage fragments from FM PEP and MX PEP catalyzed hydrolysis of the 33-mer substrate.
Substrate Specificity. In addition to the reference substrates above, enzyme specificity was also evaluated using two immunogenic peptides derived from the sequence of γ-gliadin proteins in gluten. Both peptides were synthesized using solid-phase peptide synthesis. The peptide (SEQ ID NO:4) […] contains the immunodominant γII-epitope, and is resistant to proteolysis by pepsin or any pancreatic enzyme. PEP specificity toward this substrate was assessed in a competitive assay in which 100 μM (SEQ ID NO:4) […] and 100 μM Suc-Ala-Pro-pNA were mixed and reacted with 0.02 μM PEP at 25° C. The initial velocity of Suc-Ala-Pro-pNA cleavage was measured spectrophotometrically, whereas the initial velocity of (SEQ ID NO:4) […] hydrolysis was determined via HPLC. The apparent specificity, kcat/KM, for the hydrolysis of (SEQ ID NO:4) […] could be determined based on the known kcat/KM of the enzyme for Suc-Ala-Pro-pNA and the observed reaction rates of the two substrates. […] Proteolysis reactions were performed at 37° C. in PBS buffer with 5-100 μM peptide and 0.1 μM PEP for time periods of 1 min-4 hrs.
The decrease in substrate concentration as well as concomitant intermediate and product build-up were monitored with HPLC analysis. RP-HPLC was performed on a system consisting of Beckman or Rainin Dynamax SD-200, a Varian 340 UV detector set at 215 nm and 280 nm. Solvent A was H2O with 0.1% TFA and solvent B was acetonitrile with 0.1% TFA; gradient used: 0-5% B in 0-15 min, 5-30% B in 15-30′, 30-100% B in 30-35 min, 100% B for 5′; flow 1 ml/min; separation was performed on a 4.6×150 mm reverse phase C-18 column (Vydac, Hesperia, Calif., USA). Samples were centrifuged for 10 min at 13,400 g, prior to injection of 10-100 μl. […] Thus, multiple peptides accumulate during the course of the reaction, some of which are secondary PEP substrates in themselves.
Chain Length Tolerance and Selectivity. […] Thus, the SC PEP appears to have a severe chain length restriction for long peptide substrates.

[3] = system: PQPQLPYPQPQLP and LQLQPFPQPQLPYPQPQLPYPQPQLPYPQPQPF; experiment: Competitive proteolysis of 13-mer and 33-mer by each PEP; assay type: biochemical, wheat; settings: 50 μM PQPQLPYPQPQLP, 10 μM 33-mer, 0.1 μM PEP
Experimental: FIGS. 12A-12C. […] 10 μM of the longer peptide and 50 μM of the shorter peptide were co-incubated with 0.1 μM of (A) FM PEP; (B) MX PEP; (C) SC PEP.
To examine the chain length specificity of individual PEPs, we performed competitive reactions containing both gluten-derived peptides, subjected the reaction mixture to RP-HPLC, and monitored the disappearance of each substrate was monitored as a function of time.

[4] = system: PQPQLPYPQPQLP, 33-mer and pepsin-treated gluten; experiment: Competitive proteolysis in pepsin-treated gluten with pancreatic enzymes and BBM; assay type: biochemical, wheat; settings: pancreatic enzymes, BBM
Experimental: FIGS. 13A-13B. […] This complex mixture of substrates was treated under physiological conditions with a mixture of pancreatic enzymes (trypsin, chymotrypsin, carboxypeptidase, elastase), brush border membrane enzymes (derived from rat small intestine) and either (A) FM PEP or (B) MX PEP.
The resulting solution was neutralized using 10 M NaOH and diluted to 10 g/L in a phosphate buffer (40 mM, pH 6.5). […] Prolyl endopeptidase (FM or MX; 1×: 500 mU/ml; 5×: 2.5 U/ml; 10×: 5 U/ml) and rat intestinal brush border surface membranes (BB, 1×: 40 mU/ml, 2×: 80 mU/ml, DPP IV activity) were added to a total volume of 150 μl. The mixture was incubated at 37° C. and […] aliquots were taken at 0, 5, 10, 30 and 60 min and immediately heat deactivated.

Molecule | Kcat [1] [s⁻¹] | Km [1] [µM] | higher specificity for the gluten peptide as compared to the chromogenic substrate (PQPQLPYPQPQLP) [fold] | time to hydrolyze 10 μM of the 33-mer ([2]; 0.1 μM enzyme) [min] | rate of substrate (33-mer+32-mer) disappearance ([2]; 0.1 μM enzyme) [µM/min] | initial hydrolytic products of the 33-mer [2] | faster action on the 33-mer than the MX PEP ([2]; based on initial rates) [fold] | faster action on the 33-mer than the SC PEP ([2]; based on initial rates) [fold] | chain length selectivity, 13-mer vs 33-mer [3] | relative rates of proteolysis of PQPQLPYPQPQLP, 33-mer and other gluten peptides [4] | time for breakdown of PQPQLPYPQPQLP and other smaller peptides [4] [min]
B1 | 33 | 910 | 5 | 2 to 3 | 2.3 | yielded longer intermediates | 5 | > 20 | comparable selectivity for both peptides | at comparable rates | –
B2 | 51 | 350 | 5 | – | 0.43 | fragments mostly of 4-5 residues | – | – | clear preference for the 13-mer peptide | hydrolysis of the 33-mer occurred at a slower rate | 10
